Data from the supplement of paper PMC10065799, “High-throughput profiling of sequence recognition by tyrosine kinases and SH2 domains using bacterial peptide display” (eLife, 2023).

Key:
AncSZ = assay: phosphorylation enrichment, bacterial display (enrichment ratio); higher = better substrate or ligand; peptides without Tyr show the background
EPHB1 = EPHB1 (UniProt P54762); assay: as above
EPHB2 = EPHB2 (UniProt P29323); assay: as above
FGFR1 = FGFR1 (UniProt P11362); assay: as above
FGFR3 = FGFR3 (UniProt P22607); assay: as above
Fer (mouse) = assay: as above
Fes = Fes (UniProt P07332); assay: as above
Fyn = Fyn (UniProt P06241); assay: as above
Hck = Hck (UniProt P08631); assay: as above
Jak2 = Jak2 (UniProt O60674); assay: as above
MERTK = MERTK (UniProt Q12866); assay: as above
c-Abl (mouse) = assay: as above
c-Src = assay: as above
Grb2 SH2 = Grb2 SH2 (UniProt P62993); assay: SH2 binding enrichment of the phosphorylated peptide, bacterial display (enrichment ratio); higher = better substrate or ligand; peptides without Tyr show the background
SHP2-C SH2 = assay: as above
c-Src SH2 = assay: as above
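For SH2 binding enrichment of the phosphorylated peptide, bacterial display in this document: peptide library displayed on the E. coli surface as eCPX fusions, selected cells deep-sequenced, score is each peptide's frequency after selection divided by its frequency in the input.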
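For phosphorylation enrichment, bacterial display in this document: 11-residue human phosphosite peptides and single-mutation variants displayed on the E. coli surface, counted by deep sequencing, each peptide's frequency after selection divided by its frequency in the unselected input library; frequency after pTyr selection over input frequency; kinase dosed for 20-30% of maximal phosphorylation in three min.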

Sequence of FGFR1 (P11362 whole entry, looked up): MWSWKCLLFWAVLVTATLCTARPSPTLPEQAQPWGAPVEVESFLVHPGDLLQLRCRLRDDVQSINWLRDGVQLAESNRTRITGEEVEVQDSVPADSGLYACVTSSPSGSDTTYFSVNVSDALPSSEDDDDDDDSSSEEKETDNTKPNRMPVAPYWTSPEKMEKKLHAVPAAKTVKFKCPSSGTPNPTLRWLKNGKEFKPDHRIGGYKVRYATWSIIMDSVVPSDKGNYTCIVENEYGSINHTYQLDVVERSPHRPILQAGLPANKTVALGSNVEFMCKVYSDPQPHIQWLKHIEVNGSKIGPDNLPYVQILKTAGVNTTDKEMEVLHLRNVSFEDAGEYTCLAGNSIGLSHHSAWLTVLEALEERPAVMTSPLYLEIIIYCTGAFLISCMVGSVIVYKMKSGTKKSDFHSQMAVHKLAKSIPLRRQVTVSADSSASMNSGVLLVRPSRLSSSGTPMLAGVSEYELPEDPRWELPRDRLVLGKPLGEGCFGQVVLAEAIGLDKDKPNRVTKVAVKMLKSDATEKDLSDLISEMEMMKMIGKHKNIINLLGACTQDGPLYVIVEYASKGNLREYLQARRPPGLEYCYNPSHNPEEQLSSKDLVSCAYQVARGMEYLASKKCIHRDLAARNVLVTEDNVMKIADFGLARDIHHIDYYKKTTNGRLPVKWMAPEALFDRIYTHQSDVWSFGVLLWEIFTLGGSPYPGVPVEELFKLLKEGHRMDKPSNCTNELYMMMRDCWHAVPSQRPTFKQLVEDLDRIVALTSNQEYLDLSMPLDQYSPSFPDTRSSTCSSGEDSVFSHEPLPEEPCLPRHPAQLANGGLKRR
Sequence of Fyn (P06241 whole entry, looked up): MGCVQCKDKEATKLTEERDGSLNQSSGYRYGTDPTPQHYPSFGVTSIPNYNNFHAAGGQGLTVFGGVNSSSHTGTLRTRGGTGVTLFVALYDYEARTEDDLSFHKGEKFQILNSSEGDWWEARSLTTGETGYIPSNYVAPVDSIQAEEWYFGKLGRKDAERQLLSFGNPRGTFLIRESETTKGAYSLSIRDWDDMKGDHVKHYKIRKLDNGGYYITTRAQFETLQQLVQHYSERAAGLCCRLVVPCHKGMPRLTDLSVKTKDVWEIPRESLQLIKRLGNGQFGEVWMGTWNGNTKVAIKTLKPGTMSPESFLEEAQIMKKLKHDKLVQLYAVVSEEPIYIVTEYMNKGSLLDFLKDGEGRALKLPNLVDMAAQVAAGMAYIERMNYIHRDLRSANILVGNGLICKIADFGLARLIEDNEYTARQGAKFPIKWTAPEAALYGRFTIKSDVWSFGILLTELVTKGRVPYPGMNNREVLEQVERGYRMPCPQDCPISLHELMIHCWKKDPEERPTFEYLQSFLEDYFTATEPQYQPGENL
Sequence of Fes (P07332 whole entry, looked up): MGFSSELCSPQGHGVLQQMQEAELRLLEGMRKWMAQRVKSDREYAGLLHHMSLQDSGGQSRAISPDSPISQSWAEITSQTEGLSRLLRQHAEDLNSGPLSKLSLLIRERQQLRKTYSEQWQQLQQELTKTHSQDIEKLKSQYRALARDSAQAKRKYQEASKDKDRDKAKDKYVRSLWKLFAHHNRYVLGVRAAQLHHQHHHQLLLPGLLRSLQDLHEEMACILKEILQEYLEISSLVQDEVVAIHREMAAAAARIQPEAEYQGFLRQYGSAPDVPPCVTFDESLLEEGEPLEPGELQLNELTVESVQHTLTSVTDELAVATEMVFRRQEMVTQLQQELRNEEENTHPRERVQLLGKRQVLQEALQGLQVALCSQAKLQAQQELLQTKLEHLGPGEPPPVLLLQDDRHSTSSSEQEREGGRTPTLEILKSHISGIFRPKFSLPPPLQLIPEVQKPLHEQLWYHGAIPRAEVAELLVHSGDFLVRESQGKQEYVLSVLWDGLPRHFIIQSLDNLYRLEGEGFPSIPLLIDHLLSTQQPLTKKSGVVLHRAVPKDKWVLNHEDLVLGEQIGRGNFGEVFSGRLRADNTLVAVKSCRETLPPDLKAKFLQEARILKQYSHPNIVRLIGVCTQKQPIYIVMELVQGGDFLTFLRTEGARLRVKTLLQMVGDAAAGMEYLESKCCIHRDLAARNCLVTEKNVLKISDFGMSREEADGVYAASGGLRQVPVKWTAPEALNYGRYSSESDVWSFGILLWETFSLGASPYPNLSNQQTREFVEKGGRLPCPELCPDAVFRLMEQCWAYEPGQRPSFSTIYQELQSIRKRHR
Sequence of EPHB2 (P29323 whole entry, looked up): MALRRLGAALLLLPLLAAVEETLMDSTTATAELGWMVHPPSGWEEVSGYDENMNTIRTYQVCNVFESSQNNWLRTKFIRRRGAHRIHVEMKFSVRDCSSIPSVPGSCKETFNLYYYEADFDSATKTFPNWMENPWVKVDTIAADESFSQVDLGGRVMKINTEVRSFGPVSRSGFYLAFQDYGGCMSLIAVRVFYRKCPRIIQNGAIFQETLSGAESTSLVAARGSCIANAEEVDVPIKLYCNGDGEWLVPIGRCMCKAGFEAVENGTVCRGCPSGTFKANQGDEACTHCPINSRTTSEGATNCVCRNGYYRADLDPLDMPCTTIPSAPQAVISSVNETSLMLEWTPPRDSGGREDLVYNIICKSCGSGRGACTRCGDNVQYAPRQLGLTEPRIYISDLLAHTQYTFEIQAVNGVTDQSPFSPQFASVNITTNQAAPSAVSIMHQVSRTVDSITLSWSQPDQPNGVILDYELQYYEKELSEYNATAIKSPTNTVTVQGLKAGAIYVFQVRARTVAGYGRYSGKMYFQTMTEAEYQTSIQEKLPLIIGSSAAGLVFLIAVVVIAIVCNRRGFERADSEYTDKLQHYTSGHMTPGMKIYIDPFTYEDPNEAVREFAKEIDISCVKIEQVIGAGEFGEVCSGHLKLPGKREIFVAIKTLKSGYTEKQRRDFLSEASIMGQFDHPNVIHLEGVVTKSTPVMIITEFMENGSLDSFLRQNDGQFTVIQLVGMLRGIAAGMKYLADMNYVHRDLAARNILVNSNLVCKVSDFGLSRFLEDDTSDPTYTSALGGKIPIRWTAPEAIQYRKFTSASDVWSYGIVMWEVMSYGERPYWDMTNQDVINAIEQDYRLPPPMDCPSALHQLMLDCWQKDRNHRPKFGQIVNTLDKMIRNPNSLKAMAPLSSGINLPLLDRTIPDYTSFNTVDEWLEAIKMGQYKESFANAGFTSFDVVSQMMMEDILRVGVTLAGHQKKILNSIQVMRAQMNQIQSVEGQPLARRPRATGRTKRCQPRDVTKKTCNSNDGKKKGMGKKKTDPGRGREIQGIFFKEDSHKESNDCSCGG
Sequence of EPHB1 (P54762 whole entry, looked up): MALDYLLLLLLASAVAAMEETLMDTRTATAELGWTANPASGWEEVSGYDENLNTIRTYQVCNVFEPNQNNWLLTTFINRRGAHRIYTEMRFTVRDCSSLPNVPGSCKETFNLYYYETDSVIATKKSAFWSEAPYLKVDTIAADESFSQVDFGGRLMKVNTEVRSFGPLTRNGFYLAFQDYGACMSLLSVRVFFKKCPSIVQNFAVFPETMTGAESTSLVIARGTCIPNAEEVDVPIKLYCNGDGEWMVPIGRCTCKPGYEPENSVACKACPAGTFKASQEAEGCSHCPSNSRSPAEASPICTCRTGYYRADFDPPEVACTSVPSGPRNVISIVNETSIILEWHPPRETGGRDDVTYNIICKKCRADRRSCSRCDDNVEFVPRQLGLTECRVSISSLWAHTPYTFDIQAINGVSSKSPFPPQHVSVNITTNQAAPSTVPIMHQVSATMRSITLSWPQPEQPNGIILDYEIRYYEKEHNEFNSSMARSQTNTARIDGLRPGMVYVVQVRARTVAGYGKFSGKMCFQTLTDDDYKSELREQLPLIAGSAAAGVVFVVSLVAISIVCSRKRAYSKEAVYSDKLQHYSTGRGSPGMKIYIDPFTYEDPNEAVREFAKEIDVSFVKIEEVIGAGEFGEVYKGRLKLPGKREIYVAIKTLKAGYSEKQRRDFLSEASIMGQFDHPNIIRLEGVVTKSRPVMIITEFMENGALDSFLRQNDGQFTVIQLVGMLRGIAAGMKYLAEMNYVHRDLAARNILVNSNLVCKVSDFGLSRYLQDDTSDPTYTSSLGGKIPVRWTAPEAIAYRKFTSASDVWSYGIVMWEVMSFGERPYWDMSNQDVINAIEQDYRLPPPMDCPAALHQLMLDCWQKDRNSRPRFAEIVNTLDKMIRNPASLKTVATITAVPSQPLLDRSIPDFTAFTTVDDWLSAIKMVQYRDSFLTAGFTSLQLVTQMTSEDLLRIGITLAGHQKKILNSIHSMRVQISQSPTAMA
Sequence of FGFR3 (P22607 whole entry, looked up): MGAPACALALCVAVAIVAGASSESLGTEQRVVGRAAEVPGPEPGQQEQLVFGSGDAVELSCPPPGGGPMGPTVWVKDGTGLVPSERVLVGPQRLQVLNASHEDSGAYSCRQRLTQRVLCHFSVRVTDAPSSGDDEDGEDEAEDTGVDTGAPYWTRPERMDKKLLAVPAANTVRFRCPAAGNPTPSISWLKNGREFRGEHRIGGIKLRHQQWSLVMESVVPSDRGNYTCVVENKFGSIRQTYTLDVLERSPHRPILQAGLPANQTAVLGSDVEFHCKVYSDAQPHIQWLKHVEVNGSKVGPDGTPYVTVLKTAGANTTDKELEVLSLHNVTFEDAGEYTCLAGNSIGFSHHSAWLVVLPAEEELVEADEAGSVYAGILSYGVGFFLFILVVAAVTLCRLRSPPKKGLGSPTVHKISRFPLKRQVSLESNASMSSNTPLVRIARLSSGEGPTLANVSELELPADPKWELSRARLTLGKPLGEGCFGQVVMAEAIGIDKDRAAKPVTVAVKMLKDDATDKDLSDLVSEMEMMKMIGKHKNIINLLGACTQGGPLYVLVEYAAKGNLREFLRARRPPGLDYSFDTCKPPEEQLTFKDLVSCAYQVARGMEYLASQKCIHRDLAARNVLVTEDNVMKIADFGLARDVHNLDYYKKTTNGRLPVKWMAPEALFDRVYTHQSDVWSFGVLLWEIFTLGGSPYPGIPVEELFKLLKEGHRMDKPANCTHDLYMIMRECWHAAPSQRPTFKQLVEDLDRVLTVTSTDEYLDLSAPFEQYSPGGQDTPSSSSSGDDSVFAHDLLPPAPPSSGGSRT

Sequence | SH2 binding enrichment (Grb2 SH2) | SH2 binding enrichment (SHP2-C SH2) | SH2 binding enrichment (c-Src SH2) | phosphorylation enrichment (AncSZ) | phosphorylation enrichment (EPHB1) | phosphorylation enrichment (EPHB2) | phosphorylation enrichment (FGFR1) | phosphorylation enrichment (FGFR3) | phosphorylation enrichment (Fer (mouse)) | phosphorylation enrichment (Fes) | phosphorylation enrichment (Fyn) | phosphorylation enrichment (Hck) | phosphorylation enrichment (Jak2) | phosphorylation enrichment (MERTK) | phosphorylation enrichment (c-Abl (mouse)) | phosphorylation enrichment (c-Src)
ACDALYPPGPP | 1.07 | 1.11 | 0.632 | 0.774 | 0.485 | 0.432 | 0.482 | 0.522 | 0.469 | 0.861 | 0.482 | 0.391 | 0.615 | 0.43 | 0.566 | 0.444
ACQGKYTPSGQ [ALDOA_Y343] | 0.843 | 0.75 | 0.551 | 0.598 | 0.414 | 0.402 | 0.406 | 0.734 | 0.531 | 0.742 | 0.479 | 0.46 | 0.851 | 0.378 | 0.693 | 0.463
AHAGGYGAEAL [HBA1_Y25_E24G] | 0.905 | 0.546 | 0.433 | 0.63 | 0.436 | 0.482 | 0.421 | 0.489 | 0.398 | 0.665 | 0.433 | 0.454 | 0.559 | 0.438 | 0.599 | 0.385
AHDGEYGAEAL [HBA1_Y25_A22D] | 0.83 | 0.563 | 0.493 | 0.97 | 0.556 | 0.62 | 0.513 | 0.645 | 0.534 | 1.08 | 0.552 | 0.445 | 0.819 | 0.451 | 0.608 | 0.424
AKLKDYYIFNK [CCDC42_Y149] | 1 | 0.711 | 0.823 | 0.596 | 0.449 | 0.594 | 3.4 | 2.16 | 0.457 | 0.635 | 0.515 | 0.503 | 0.605 | 0.704 | 0.65 | 0.808
ALAAPYVLFPG [CEFIP_Y1332_YF] | 0.839 | 1.21 | 3.49 | 0.775 | 0.581 | 0.452 | 3.79 | 2.44 | 0.543 | 0.726 | 0.739 | 0.641 | 1.21 | 1.29 | 0.598 | 4.54
ALADKYHGGGG [HBB_Y146_H144D] | 0.727 | 0.56 | 0.38 | 0.467 | 0.287 | 0.374 | 0.396 | 0.402 | 0.375 | 0.517 | 0.39 | 0.355 | 0.439 | 0.322 | 0.423 | 0.318
ALRASYTPSPV [ESS2_Y418_A423V] | 0.67 | 0.557 | 0.418 | 0.847 | 0.366 | 0.53 | 0.32 | 0.502 | 0.424 | 0.723 | 0.39 | 0.458 | 0.909 | 0.435 | 0.945 | 0.678
AMCVCYDGVEV [ADAMTSL2_Y594_R593C] | 0.736 | 0.589 | 0.815 | 1.42 | 0.585 | 0.589 | 0.511 | 0.882 | 1.41 | 1.31 | 0.68 | 0.655 | 1.03 | 0.41 | 0.816 | 1.02
ANAFIYDVQLP [L1CAM_Y420_V421D_YF] | 1.01 | 0.633 | 0.51 | 1.1 | 1.69 | 1.3 | 0.639 | 0.627 | 1.19 | 0.938 | 6.97 | 4.65 | 0.849 | 7.43 | 0.715 | 4.96
ANNPLYKEATP [ITGB3_Y773_S778P] | 0.869 | 0.763 | 0.471 | 0.58 | 0.45 | 0.533 | 0.41 | 0.479 | 0.372 | 0.764 | 0.402 | 0.4 | 0.657 | 0.521 | 0.623 | 0.374
ANYTEYVATRW [CDKL5_Y171] | 0.915 | 0.998 | 0.515 | 1.04 | 8.12 | 9.4 | 2.97 | 2.27 | 0.601 | 0.96 | 0.945 | 0.886 | 0.737 | 1.05 | 0.948 | 1.11
ANYTEYVATSW [CDKL5_Y171_R175S] | 0.874 | 0.665 | 0.592 | 1.34 | 7.89 | 8.89 | 3.44 | 2.82 | 0.555 | 0.867 | 0.722 | 0.672 | 0.897 | 0.815 | 0.812 | 0.763
APSHAYHGGVL [ANO1_Y981] | 0.881 | 0.501 | 0.629 | 0.52 | 0.371 | 0.336 | 0.626 | 0.427 | 0.502 | 0.494 | 0.382 | 0.5 | 0.496 | 0.381 | 0.505 | 0.475
ARAGEYGAEAL [HBA1_Y25_H21R] | 0.923 | 0.667 | 0.487 | 0.866 | 0.465 | 0.469 | 0.473 | 0.524 | 0.383 | 0.829 | 0.655 | 0.432 | 0.697 | 0.379 | 0.571 | 0.396
ARVANYQRDGP [CAT_Y386] | 0.606 | 0.342 | 0.32 | 0.785 | 0.564 | 0.406 | 0.524 | 0.526 | 0.394 | 0.607 | 0.436 | 0.386 | 0.486 | 0.574 | 0.496 | 0.545
ARVDTYCRHNY [HLA-DRB1_Y107_A103R] | 1.09 | 0.755 | 0.752 | 0.825 | 0.6 | 0.583 | 0.582 | 0.698 | 0.812 | 1.09 | 0.552 | 0.502 | 0.798 | 0.538 | 0.797 | 0.468
ASFGPNTRVQS [FOXL2_Y258_Y258N_YF] | 0.8 | 0.267 | 0.542 | 0.567 | 0.445 | 0.399 | 0.479 | 0.442 | 0.447 | 0.619 | 0.466 | 0.433 | 0.565 | 0.365 | 0.525 | 0.394
ATHSRYRLNDY [CLDN14_Y233_G232R] | 0.744 | 0.563 | 0.682 | 0.562 | 0.484 | 0.371 | 0.387 | 0.468 | 0.37 | 0.735 | 0.442 | 0.505 | 0.406 | 0.459 | 0.476 | 0.417
DCPASYKKKSM [PDGFRA_Y768_R764C] |  |  |  | 0.394 | 0.591 | 0.189 | 0.416 | 0.202 | 0.384 | 0.323 | 0.283 | 0.368 | 0.168 | 0.363 | 0.337 | 0.253

Second part, led by results:

SH2 binding enrichment (Grb2 SH2) | SH2 binding enrichment (SHP2-C SH2) | SH2 binding enrichment (c-Src SH2) | Sequence | phosphorylation enrichment (AncSZ) | phosphorylation enrichment (EPHB1) | phosphorylation enrichment (EPHB2) | phosphorylation enrichment (FGFR1) | phosphorylation enrichment (FGFR3) | phosphorylation enrichment (Fer (mouse)) | phosphorylation enrichment (Fes) | phosphorylation enrichment (Fyn) | phosphorylation enrichment (Hck) | phosphorylation enrichment (Jak2) | phosphorylation enrichment (MERTK) | phosphorylation enrichment (c-Abl (mouse)) | phosphorylation enrichment (c-Src)
0.713 | 0.549 | 0.504 | AALSAYAPQRP [PTPRN2_Y249_A251P] | 0.853 | 0.54 | 0.527 | 0.605 | 0.584 | 0.541 | 1.08 | 0.733 | 0.529 | 0.803 | 0.543 | 0.791 | 0.521
1.03 | 0.75 | 0.835 | ACCLLYHGDVV [TUBA4A_Y319_R320H] | 0.918 | 0.551 | 0.539 | 2.49 | 1.45 | 1.88 | 0.887 | 0.507 | 0.632 | 0.797 | 0.739 | 0.69 | 5.43
1.05 | 0.849 | 0.776 | ACCLLYRGDVV [TUBA4A_Y319] | 0.947 | 0.507 | 0.557 | 3.27 | 1.34 | 0.758 | 0.889 | 0.565 | 0.645 | 0.853 | 0.709 | 0.482 | 5.88
1.02 | 0.794 | 0.401 | ADEDIYGVLPA [LYNtide_2014] | 1.49 | 0.705 | 1.36 | 0.606 | 0.982 | 2.99 | 1.36 | 4.82 | 3.51 | 1.28 | 2.76 | 2.19 | 2.97
0.968 | 0.544 | 0.614 | ADFPDYKFRPR [SOX11_Y116_YF] | 1.07 | 0.378 | 0.422 | 0.455 | 0.58 | 0.369 | 0.697 | 0.472 | 0.501 | 0.728 | 0.413 | 0.403 | 0.357
0.78 | 0.58 | 0.55 | ADRARYSAFGG [RBM4_Y361] | 0.5 | 0.371 | 0.303 | 0.35 | 0.394 | 0.424 | 0.523 | 0.41 | 0.381 | 0.482 | 0.4 | 0.546 | 0.397
0.679 | 0.637 | 0.518 | AELKLYSGAQT [ZAP70_Y178_R175L] | 0.877 | 0.567 | 0.571 | 0.39 | 0.595 | 0.485 | 0.956 | 0.455 | 0.646 | 0.82 | 0.395 | 0.526 | 0.362
0.784 | 0.487 | 0.43 | AGIENYKSRFG [NKD2_Y256_T257K] | 0.578 | 0.451 | 0.377 | 0.357 | 0.452 | 0.409 | 0.486 | 0.356 | 0.517 | 0.537 | 0.412 | 0.512 | 0.363
1.08 | 1.5 | 1.67 | AIKSFYAALID [RYR1_Y2426_M2423K] | 0.882 | 1.25 | 1.23 | 0.553 | 0.628 | 0.479 | 0.981 | 0.504 | 0.758 | 0.667 | 2.53 | 0.719 | 0.481
0.978 | 1.47 | 0.778 | AIMSFYAALID [RYR1_Y2426] | 1.15 | 1.13 | 0.667 | 0.417 | 0.988 | 0.69 | 1.48 | 0.506 | 0.574 | 1.56 | 0.74 | 1.02 | 0.513
0.818 | 1.08 | 1.3 | ANRNVYEVEPT [MEGF10_Y1075] | 0.787 | 0.451 | 0.5 | 0.404 | 0.47 | 0.473 | 0.755 | 6.32 | 0.842 | 0.63 | 0.476 | 0.6 | 4
0.965 | 0.693 | 4.4 | ARSHIYTLASC [MEFV_Y741_F743L] | 1.05 | 0.598 | 0.58 | 0.541 | 0.68 | 0.657 | 1.13 | 2.13 | 0.95 | 0.802 | 1.17 | 0.803 | 2.07
1.11 | 0.625 | 0.861 | ATARPYRPFII [LRP5_Y1528_YF] | 0.465 | 0.356 | 0.469 | 0.402 | 0.566 | 0.406 | 0.61 | 0.359 | 0.405 | 0.589 | 0.469 | 1.05 | 0.389
1.39 | 0.884 | 0.773 | RVGVDYEGGGC [PLOD1_Y675] |  |  |  |  |  |  |  |  |  | 0.377 |  | 0.239 | 0.287
